Earlier results in paper PMC13341169.
Like-named read-outs stand apart in the source and are kept apart here.

Experiments:
[1] = biological target: PKA C-subunit (Homo sapiens) (UniProt P17612)
[2] = biological target: PKA C-subunit (Homo sapiens) (UniProt P17612); remark: listed apart in the source

| Substance | Kd [1] [nM] | Kd [2] [nM] |
| --- | --- | --- |
| PKIβ (from UniProt Q9C010) | 7.1 | – |
| PKIγ (from UniProt Q9Y2B9) | – | 0.4 |
